# Laboratory results taken from the DeepSol protein solubility set.
# Experiment: soluble on expression in E. coli; label from the status in PepcDB or PDB records
row,Sequence,soluble on expression in E. coli
1,MTRGPIFLNVGISYGLPRTKLPAAVSFRKWVAATLQGRIRKADLAIRIVDEKEGRALNYHYRNKDYATNVLSFPAQLPEPLPKALKIPLLGDIVMCAPVIAREAAEQGKSLSAHYAHLTVHGTLHLLGWNHEDHQEADAMEQLEREILANLGISDPYLEEY,soluble
2,MSEFLPFSRPAMGVEELAAVKEVLESGWITTGPKNQALEQAFCQLTGNQHAIAVSSATAGMHITLMALKIGKGDEVITPSLTWVSTLNMISLLGATPVMVDVDRDTLMVTPEAIESAITPRTKAIIPVHYAGAPADIDAIRAIGERYGIAVIEDAAHAVGTYYKGRHIGAKGTAIFSFHAIKNITCAEGGLIVTDNENLARQLRMLKFHGLGVDAYDRQTWGRAPQAEVLTPGYKYNLTDINAAIALTQLVKLEHLNTRRREIAQQYQQALAALPFQPLSLPAWPHVHAWHLFIIRVDEQRCGISRDALMEALKERGIGTGLHFRAAHTQKYYRERFPTLSLPNTEWNSERICSLPLFPDMTTADADHVITALQQLAGQ,soluble
3,MSKRDYYETLGVSQDASEKEVKKAYKKLAMKYHPDRTQGDKSKEETFKEVKEAYEILNDDQKRAAYDQYGHAAFEQGGNGGGGGGHGGGFGQDFGDIFGDIFGGGGGGRGRQRQQRGSDLRYNVDLSLEDAVKGKSLEIKVPTYVSCEPCDGSGAKKGTSAKTCSTCHGHGQVQMRQGLFAVQQTCPTCSGKGKVIADKCTSCRGQGRVEKTKTLSVKIPAGVDTGDRIRLSGEGEAGEHGAPAGDLYVQVNVRDHEIFVRDENHLYCEVPISFVTAALGGDIEVPTLGGKVKLKVPKETQTGKMFRLRGKGVKSVRSSTTGDLMCKVVIETPVNLSGDQADLLRQLEEKMASSSKKHSPKETGFFDGVKKFFDDLKS,not soluble
4,MGSDKIHHHHHHVYYAHFGLKEPPFKITPNTDFFFRGGNRGAVLEALRYAILHGEGIVKVVGEVGSGKTMLCRMLQTQLPDHVDSVYLANPSMAPEDVLHAIALELHLDIPDRLSKLEVMQRLQQALLDKHEARRQVVVFVEEAQGMPLATLEEIRLLTNLETRHHKLLQIVLFGQPELDDNLNQRQIRQLKERITHSFYLGPLSRDEIAEYLMFRLRAAGYYGPPLFTKRAVKQLAKMAQGLVRRVNILADKSLLAAFAANADQVTPRHVAAAIRDSEFAGEIQRPVGRWSVLIGGLVLGVAGMALYAWSQGMLPLPVAPAPVTHAETEQRLEEAHSLENESGRGMSGVLPLLMQREEASLVWLDSTPPEYITIALMHDFPETDQEKEQQLLSANLVLDDVYALRTKVGEEDRVIILYGAYENRQQALEEFRSLPKALQMGAYLRTIAGIREELLQHQ,not soluble
5,RIKEKTISHWVAMQGIAMIQLNLLRTSQSQESTQATTMLGQKWYWRAKISPTPIKRMQQITISVSSKQAGPFREELIAFRYLP,not soluble
6,MTMHREPGGERYYYTWAWFEGPDDAAWRVTGHHTDSGEQYRLDWNLAERSLCVTDSLGRTRCHWWDAQGLVTAYRDEAGQMTTFRWSDEERLLLGMTDAQGGKWRYVYDRLGHLTETHDPLGRVEQTQWHPVWHQPETEVDAAGAAWRYEYDERGNLQAVSDPLHQRTVYGYDRHGQVVRITDARGGDKYLQWNEDGQLMRHTDCSGSQTAWFYDERTRLERVTDAESNSTRYSYDGNGHLTEVMFADGRTERYQPDAAGRLVKYTSPAGQITRWQRDGQGRVRRQTDATGRRTAYEYDAYGRLTTLTNENGESYRFRYDVLDRLTEQTDPGGSRRAYGYNALNAVTAVIYGGERGGEIRHGLERDAAGRLTAKTTPETRTEYRYDAADRLLEIRRRRHDAAEGGEPEVIRFSYDSAGNLLSEETAQGVLQHRYDVQGNRTETQMPDGRTLRYLYYGSGHLQQINLGRDVISEFTRDHLHREVQRSQGRLDTRRMYDRTGRLTRKPTCKGMRGVVPETFIDREYAYSGQDELLKKRHSRQGVTDYFYDTTGRITACRNEAYLDSWQYDAAANLLDRRQGETAQAGAGSVVPFNRITSYRGLHYRYDEYGRVVEKRGRNGTQHYRWDAEHRLTEVAVIRGSTVRRYGYVYDAPGRRVEKHELDAEGKPYNRTTFLWDGMRLAQECRLGRSSSLYIYSDQGSHEPLARVDRAAPGEADEVLYYHTDVNGAPEEMTDGRGNIVWEAGYQVWGNLTHEKETRPVQQNLRFQGQYLDRETGLHYNLYRFYDPDIGKFISGDPISIRGGINLYQYAPNPIKWIDPLGLYNGEGQRELGKYHVFHEHNLDITEYGLSDAEHFSRGNQAIYERMKNDPAFRREMQTKYPGVVEHVQPSSGGKFSTESPPGLTWHHENKPGVLSLVDRLDHKTYLEHHHHHH,not soluble
